Assay results: patent US6570069B1, “Nucleic acids encoding plant inhibitors of apoptosis and transgenic cells and plants expressing them” (priority 2000, dated 2003)

Key:
caspase-3 = target: T1, caspase-3 (Homo sapiens, UniProt P42574); experiment: Inhibition of recombinant purified caspase-3; type: biochemical, mammalian; conditions: in vitro
T1 construct: His6 (C); made in house
T1 sequence (P42574 29-175 limits assumed): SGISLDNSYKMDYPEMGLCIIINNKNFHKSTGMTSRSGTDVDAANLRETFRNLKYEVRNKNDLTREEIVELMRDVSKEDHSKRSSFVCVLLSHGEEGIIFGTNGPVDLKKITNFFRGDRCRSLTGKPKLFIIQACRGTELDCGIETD
T1 sequence (P42574 176-277 limits assumed): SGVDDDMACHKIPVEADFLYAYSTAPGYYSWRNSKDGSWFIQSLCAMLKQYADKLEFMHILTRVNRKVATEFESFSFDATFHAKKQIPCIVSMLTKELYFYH
Description: pGEX4T-1-SfIAP and pGEX4T-1 -CpIAP plasmids were introduced into E. coli strain BL21 (DE3) containing the plasmid pT-Trx. GST fusion proteins were obtained by induction with 0.05 mM IPTG at 25° C. for 8 hours, then purified using glutathione-Sepharose, essentially as described (Deveraux, Q., Welsh, K. & Reed, J. Methods of Enzymology in press). Caspases-3, and -7, containing C-terminal His6-tags, and caspase-8 containing an N-terminal His6-tag were purified as described previously (Stennicke, H. R. & Salvesen, G. S. (I1997) J. Biol. Chem. 272, 25719-25723; Stennicke, H., et al., (1998) J. Biol. Chem. 273, 27084-27090; Stennicke, H., et al., (1999) J. Biol. Chem. 274, 8359-8362). Caspase-9 lacking the CARD domain (ΔCARD-caspase-9) was constructed by truncating the cDNA and introducing a start codon substituting Val139. […] Concentrations of purified enzymes were determined from absorbance at 280 nm based on the molar absorption coefficients: caspase-3 (A280=26,000M−1 cm−1), caspase-7 (A280=24,500 M−1 cm−1), caspase-9 (A280=30,010M−1 cm−1).
Caspase activity was assayed by release of 7-amino-4-trifluoromethyl-coumarin (AFC) from Ac-DEVD or Ac-LEHD-containing synthetic peptides (Calbiochem) using continuous-reading instuments as described (Quan, L. T. et al., (1995) J. Biol. Chem. 270:10377-10379).

[1] = tested on: Fas-induced apoptosis in HEK293 cells; experiment: Fas-induced apoptosis in HEK293 cells (co-transfection, DAPI nuclear morphology); type: cell-based, human; conditions: IAP plasmid co-transfected with Fas into HEK293 cells; % apoptosis 24-36 hours later
Description: (§1) HEK293 and 293T cells were maintained in DMEM (Irvine Scientific) supplemented with 10% fetal bovine serum, 1 mM L-glutamine and antibiotics. 293 cells (10^6) were co-transfected using Superfect with 0.1 μg Green Fluoresence Protein (GFP) marker plasmid pEGFP (Clontech), 0.25 ug of either pcDNA3-Bax or pcDNA3-Fas, and 1.5 μg of either pcDNA3myc-SfIAP or pcDNA3myc-CpIAP. Alternatively, cells were co-transfected with 0.35 μg pcDNA3-caspase-9-Flag and 2.1 μg of either SfIAP or CpIAP. […] In some cases, lysates were prepared from transfected cells, normalized for total protein content, and analyzed by SDS-PAGE/immunoblotting as described (Deveraux, Q., et al., (1997) supra; Deveraux, Q. L., et al. (1998) supra; Roy, N. et al. (1997) supra; Takahashi, R., et al., (1998), supra.).
Baculoviral IAPs have been reported to protect mammalian cells from some apoptotic stimuli (Hawkins, C. J. et al., (1996) Proc. Natl. Acad. Sci. USA 93, 13786-13790; Hawkins, C. et al., (1998) Cell Death and Differentiation 5, 569-576; Uren, A. G. et al., (1996) Proc. Natl. Acad. Sci. USA 93, 4974-4978). Tests were performed to determine whether SfIAP is also capable of functioning as an apoptosis suppressor in a mammalian cell context. […]
Plasmids encoding various IAPs were co-transfected with Bax or Fas into 293 cells and % apoptosis was determined 24-36 hours later.

[2] = tested on: caspase-9-induced caspase activation and apoptosis in 293T cells; experiment: Caspase-9 overexpression in 293T cells: caspase activity and apoptosis; type: cell-based, human; conditions: 24-36 hours after transfection
Description: as §1
To test this hypothesis, 293T cells were transfected with plasmids encoding pro-caspase-9 alone or in combination with SfIAP and CpIAP. Caspase activity and apoptosis were then assayed 24-36 hours later.

Molecule | inhibition of caspase-3 (caspase-3) | suppression of Fas-induced apoptosis [1] | inhibition of caspase-9-induced apoptosis [2] | suppression of activation of downstream DEVD-cleaving caspases induced by overexpression of caspase-9 [2]
CpIAP: baculoviral (CpGV) inhibitor of apoptosis protein; complete ORF expressed myc-tagged or as GST-fusion (protein, left off: a dimerising Fc or GST, complete ORF expressed myc-tagged or as GST-fusion) MSDLRLEEVRLNTFEKWPVSFLSPETMAKNGFYYLGRSDEVRCAFCKVEIMRWKEGEDPAADHKKWAPQCPFVKGIDVCGSIVTTNNIQNTTTHDTIIGPAHPKYAHEAARVKSFHNWPRCMKQRPEQMADAGFFYTGYGDNTKCFYCDGGLKDWEPEDVPWEQHVRWFDRCAYVQLVKGRDYVQKVITEACVLPGENTTVSTAAPVSEPIPETKIEKEPQVEDSKLCKICYVEECIVCFVPCGHVVACAKCALSVDKCPMCRKIVTSVLKVYFS | nor inhibited | ineffective at suppressing Fas-induced apoptosis | inhibited caspase-9-induced apoptosis | markedly suppressed activation of downstream DEVD-cleaving caspases
SfIAP: cellular IAP cloned from Spodoptera frugiperda, protein of 377 amino acids (SEQ ID NO:3); GST-fusion when recombinant (protein, listed as Spodoptera frugiperda, GST fusion when recombinant; fall armyworm inhibitor of apoptosis protein (SfIAP)) MWSCSLPCWNTKKSGLQMDITKVASNGSSSTLTLFKSGSLEAKIRPLAPLMLPTPSYDSNAGSPSLSPSTPCSSSSFSIDKTDNHDTFGFSADTVDMRKEDERMKTFEKWPVSFLSGEQLARNGFYYLGRRDEARCAFCKVEIMRWVEGDDPAKDHQRWAPQCPFVRKLNGTAAADTGSSGQDECGARAAPSGTSPPRMAGPVHPRYASEAARLRSFKDWPRCMRQKPEELAEAGFFYTGQGDKTKCFYCDGGLKDWENHDVPWEQHARWFDRCAYVQLVKGREYVQKVISEACEVSASEAERDVAPARTAEPSPPAEAPENSVDDSKLCKICYAEERNVCFVPCGHVVACAKCALAADKCPMCRRTFQNAVRLYFS | nor inhibited | ineffective at suppressing Fas-induced apoptosis | inhibited caspase-9-induced apoptosis | markedly suppressed activation of downstream DEVD-cleaving caspases
